# Results reported in US7897142B2, “Peptide based-compounds” (GE Healthcare AS, priority 2004, dated 2011).
# Positions of bridges follow the written chain, without caps; N, C: chain ends. Residues, ends and D or L forms follow the SMILES beside them. *: point of attachment. X1 = CC[N+]1=C(/C=C/C=C/C=C2/N(CCCCCC(=O)*)c3ccc(S(=O)(=O)O)cc3C2(C)C)C(C)(C)c2cc(S(=O)(=O)[O-])ccc21; X3 = C[N+]1=C(/C=C/C=C/C=C2/N(CCCCCC(=O)*)c3ccccc3C2(C)C)C(C)(C)c2cc(S(=O)(=O)[O-])ccc21; X2 = NC(=O)COCC(=O)NCCOCCOCCOCCN*
# Assay: in vitro
# Conditions: blood plasma
# Protocol: Protein Binding Analysis of Dye Conjugates Containing 1, 2 and 4 Sulphonic Acid Groups
# An analysis of protein binding of the dye conjugates of the invention was performed by an equilibrium dialysis and rate dialysis as described in the book “Protein-Ligand Interactions: Hydrodynamics and calorimetry”, edited by Stephen E. Harding and Babur Z. Chowdhry, Oxford University Press, published 2001, chapter 2 by Bent Honoré, Department of Medical Biochemisty, University of Aarhus.
row,SMILES,fraction unbound
1,"C[N+]1=C(/C=C/C=C/C=C2/N(CCCCCC(=O)NCCCC[C@@H]3NC(=O)CSC[C@@H](C(=O)NCCOCCOCCOCCNC(=O)COCC(N)=O)NC(=O)[C@H](Cc4ccccc4)NC(=O)[C@@H]4CSSC[C@H](NC3=O)C(=O)N[C@@H](CCCNC(=N)N)C(=O)NCC(=O)N[C@@H](CC(=O)O)C(=O)N4)c3ccccc3C2(C)C)C(C)(C)c2cc(S(=O)(=O)[O-])ccc21 [Compound A, Cys2-6; c[CH2CO-Lys(Cy5 mono-SO3)-Cys-Arg-Gly-Asp-Cys-Phe-Cys]-(PEG)n-NH2 (n=1)] ({CH2CO}-K(X3)CRGDCFC-X2; disulfide 2-6; thioether N-8)",0.83
2,"CC[N+]1=C(/C=C/C=C/C=C2/N(CCCCCC(=O)NCCCC[C@@H]3NC(=O)CSC[C@@H](C(=O)NCCOCCOCCOCCNC(=O)COCC(N)=O)NC(=O)[C@H](Cc4ccccc4)NC(=O)[C@@H]4CSSC[C@H](NC3=O)C(=O)N[C@@H](CCCNC(=N)N)C(=O)NCC(=O)N[C@@H](CC(=O)O)C(=O)N4)c3ccc(S(=O)(=O)O)cc3C2(C)C)C(C)(C)c2cc(S(=O)(=O)[O-])ccc21 [Compound B, Cys2-6; c[CH2CO-Lys(Cy5 bis-SO3)-Cys-Arg-Gly-Asp-Cys-Phe-Cys]-(PEG)n-NH2 (n=1)] ({CH2CO}-K(X1)CRGDCFC-X2; disulfide 2-6; thioether N-8)",0.79
3,CC[N+]1=C(/C=C/C=C/C=C2/N(CCCCCC(=O)NCCCC[C@@H]3NC(=O)CSC[C@@H](C(=O)NCCOCCOCCOCCNC(=O)COCC(N)=O)NC(=O)[C@H](Cc4ccccc4)NC(=O)[C@@H]4CSSC[C@H](NC3=O)C(=O)N[C@@H](CCCNC(=N)N)C(=O)NCC(=O)N[C@@H](CC(=O)O)C(=O)N4)c3ccc4c(S(=O)(=O)O)cc(S(=O)(=O)O)cc4c3C2(C)C)C(C)(C)c2c1ccc1c(S(=O)(=O)O)cc(S(=O)(=O)O)cc21 [Compound C],0.55
